Experimental data taken from the supplement of paper PMC11246515.
± gives the standard deviation of the averaged measurements.

Experiment: total protein half-life in vivo (active degradation + dilution); higher = more stable protein
[1] = E. coli NCM3722 delta-clpP delta-lon delta-hslV, growth: N-lim chemostat, doubling time 6 h
[2] = wild type E. coli NCM3722, growth: C-lim chemostat, doubling time 6 h
[3] = wild type E. coli NCM3722, growth: C-lim chemostat, doubling time 12 h
[4] = wild type E. coli NCM3722, growth: N-lim chemostat, doubling time 6 h
[5] = wild type E. coli NCM3722, growth: N-lim chemostat, doubling time 12 h
[6] = wild type E. coli NCM3722, growth: P-lim chemostat, doubling time 12 h
[7] = wild type E. coli NCM3722, growth: C-lim chemostat, doubling time 3 h
[8] = E. coli NCM3722 delta-clpP, growth: N-lim chemostat, doubling time 6 h
[9] = E. coli NCM3722 delta-hslV, growth: N-lim chemostat, doubling time 6 h
[10] = E. coli NCM3722 delta-lon, growth: N-lim chemostat, doubling time 6 h
[11] = E. coli NCM3722 delta-smpB, growth: N-lim chemostat, doubling time 6 h
[12] = wild type E. coli NCM3722, growth: P-lim chemostat, doubling time 6 h

| Sequence | total protein half-life in vivo [1] [h] | total protein half-life in vivo [2] [h] | total protein half-life in vivo [3] [h] | total protein half-life in vivo [4] [h] | total protein half-life in vivo [5] [h] | total protein half-life in vivo [6] [h] | total protein half-life in vivo [7] [h] | total protein half-life in vivo [8] [h] | total protein half-life in vivo [9] [h] | total protein half-life in vivo [10] [h] | total protein half-life in vivo [11] [h] | total protein half-life in vivo [12] [h] |
| --- | --- | --- | --- | --- | --- | --- | --- | --- | --- | --- | --- | --- |
| MSQSLFSQPLNVINVGIAMFSDDLKKQHVEVTQLDWTPPGQGNMQVVQALDNIADSPLADKIAAANQQALERIIQSHPVLIGFDQAINVVPGMTAKTILHAGPPITWEKMCGAMKGAVTGALVFEGLAKDLDEAAELAASGEITFSPCHEHDCVGSMAGVTSASMFMHIVKNKTYGNIAYTNMSEQMAKILRMGANDQSVIDRLNWMRDVQGPILRDAMKIIGEIDLRLMLAQALHMGDECHNRNNAGTTLLIQALTPGIIQAGYSVEQQREVFEFVASSDYFSGPTWMAMCKAAMDAAHGIEYSTVVTTMARNGVEFGLRVSGLPGQWFTGPAQQVIGPMFAGYKPEDSGLDIGDSAITETYGIGGFAMATAPAIVALVGGTVEEAIDFSRQMREITLGENPNVTIPLLGFMGVPSAIDITRVGSSGILPVINTAIAHKDAGVGMIGAGIVHPPFACFEKAILGWCERYGV | 5.39 ± 0.44 | 4.45 | 7.84 | 2.89 | 4.45 | 8.94 ± 0.66 | – | – | – | – | – | – |
| MTDDFAPDGQLAKAIPGFKPREPQRQMAVAVTQAIEKGQPLVVEAGTGTGKTYAYLAPALRAKKKVIISTGSKALQDQLYSRDLPTVSKALKYTGNVALLKGRSNYLCLERLEQQALAGGDLPVQILSDVILLRSWSNQTVDGDISTCVSVAEDSQAWPLVTSTNDNCLGSDCPMYKDCFVVKARKKAMDADVVVVNHHLFLADMVVKESGFGELIPEADVMIFDEAHQLPDIASQYFGQSLSSRQLLDLAKDITIAYRTELKDTQQLQKCADRLAQSAQDFRLQLGEPGYRGNLRELLANPQIQRAFLLLDDTLELCYDVAKLSLGRSALLDAAFERATLYRTRLKRLKEINQPGYSYWYECTSRHFTLALTPLSVADKFKELMAQKPGSWIFTSATLSVNDDLHHFTSRLGIEQAESLLLPSPFDYSRQALLCVLRNLPQTNQPGSARQLAAMLRPIIEANNGRCFMLCTSHAMMRDLAEQFRATMTLPVLLQGETSKGQLLQQFVSAGNALLVATSSFWEGVDVRGDTLSLVIIDKLPFTSPDDPLLKARMEDCRLRGGDPFDEVQLPDAVITLKQGVGRLIRDADDRGVLVICDNRLVMRPYGATFLASLPPAPRTRDIARAVRFLAIPSSR | 5.98 ± 0.95 | – | – | – | – | – | 3.37 | – | – | – | – | – |
| MFDRYDAGEQAVLVHIYFTQDKDMEDLQEFESLVSSAGVEALQVITGSRKAPHPKYFVGEGKAVEIAEAVKATGASVVLFDHALSPAQERNLERLCECRVIDRTGLILDIFAQRARTHEGKLQVELAQLRHLATRLVRGWTHLERQKGGIGLRGPGETQLETDRRLLRNRIVQIQSRLERVEKQREQGRQSRIKADVPTVSLVGYTNAGKSTLFNRITEARVYAADQLFATLDPTLRRIDVADVGETVLADTVGFIRHLPHDLVAAFKATLQETRQATLLLHVIDAADVRVQENIEAVNTVLEEIDAHEIPTLLVMNKIDMLEDFEPRIDRDEENKPNRVWLSAQTGAGIPQLFQALTERLSGEVAQHTLRLPPQEGRLRSRFYQLQAIEKEWMEEDGSVSLQVRMPIVDWRRLCKQEPALIDYLI | 5.01 ± 0.4 | 4.15 ± 0.4 | 5.93 ± 0.57 | 3.31 ± 0.19 | 4.68 ± 0.19 | 5.9 ± 0.61 | 2.34 ± 0.078 | 4.19 ± 0.56 | 3.18 ± 0.019 | 3.87 ± 0.12 | 2.77 ± 0.12 | 3.34 ± 0.12 |
| MRHLRNIFNLGIKELRSLLGDKAMLTLIVFSFTVSVYSSATVTPGSLNLAPIAIADMDQSQLSNRIVNSFYRPWFLPPEMITADEMDAGLDAGRYTFAINIPPNFQRDVLAGRQPDIQVNVDATRMSQAFTGNGYIQNIINGEVNSFVARYRDNSEPLVSLETRMRFNPNLDPAWFGGVMAIINNITMLAIVLTGSALIREREHGTVEHLLVMPITPFEIMMAKIWSMGLVVLVVSGLSLVLMVKGVLGVPIEGSIPLFMLGVALSLFATTSIGIFMGTIARSMPQLGLLVILVLLPLQMLSGGSTPRESMPQMVQDIMLTMPTTHFVSLAQAILYRGAGFEIVWPQFLTLMAIGGAFFTIALLRFRKTIGTMA [P0AGH1] | – | 7.01 | 12.2 | 5.76 ± 0.3 | 10.5 | 11.7 ± 0.4 | 3.9 | – | 7.18 ± 0.3 | – | 6.13 ± 0.76 | 7.25 ± 0.75 |
| MTFIKGLPLMLLTISLGCNAAVQPDRTRIVFNANDKATSLRIENQSDKLPYLAYSWIENEKGEKSDALLVALPPIQRLEPKATSQVRVVKQASTTQLPGDRETLFFYNMREIPPAPDKSSDHAILQVAIQSRIKLFWRPAALRKKAGEKVELQLQVSQQGNQLTLKNPTAYYLTIAYLGRNEKGVLPGFKTVMVAPFSTVNTNTGSYSGSQFYLGYMDDYGALRMTTLNCSGQCRLQAVEAK | > 8 | – | – | – | 14.3 | – | – | – | – | – | – | – |
| MDNAVDRHVFYISDGTAITAEVLGHAVMSQFPVTISSITLPFVENESRARAVKDQIDAIYHQTGVRPLVFYSIVLPEIRAIILQSEGFCQDIVQALVAPLQQEMKLDPTPIAHRTHGLNPNNLNKYDARIAAIDYTLAHDDGISLRNLDQAQVILLGVSRCGKTPTSLYLAMQFGIRAANYPFIADDMDNLVLPASLKPLQHKLFGLTIDPERLAAIREERRENSRYASLRQCRMEVAEVEALYRKNQIPWINSTNYSVEEIATKILDIMGLSRRMY [P0A8A4] | 5.48 ± 1.3 | 5.64 ± 0.63 | 9.92 ± 1.4 | 4.1527 ± 0.0038 | 6.76 ± 0.45 | 10.7 ± 0.8 | 3.15 ± 0.21 | 4.186 ± 0.013 | 4.0273 ± 0.0032 | 4.39 ± 0.15 | 3.98 ± 0.32 | 5.48 ± 0.51 |
| MSCEELEIVWNNIKAEARTLADCEPMLASFYHATLLKHENLGSALSYMLANKLSSPIMPAIAIREVVEEAYAADPEMIASAACDIQAVRTRDPAVDKYSTPLLYLKGFHALQAYRIGHWLWNQGRRALAIFLQNQVSVTFQVDIHPAAKIGRGIMLDHATGIVVGETAVIENDVSILQSVTLGGTGKSGGDRHPKIREGVMIGAGAKILGNIEVGRGAKIGAGSVVLQPVPPHTTAAGVPARIVGKPDSDKPSMDMDQHFNGINHTFEYGDGI [P0A9D4] | 5.17 ± 0.28 | 5.49 ± 0.22 | 9.82 ± 0.61 | 5.03 ± 0.5 | 7.88 ± 0.39 | 11.5 ± 0.77 | 3.65 ± 0.071 | 4.83 ± 0.052 | 4.32 ± 0.11 | 4.85 ± 0.097 | 4.76 ± 0.16 | 5.83 ± 0.13 |
| MKLISNDLRDGDKLPHRHVFNGMGYDGDNISPHLAWDDVPAGTKSFVVTCYDPDAPTGSGWWHWVVVNLPADTRVLPQGFGSGLVAMPDGVLQTRTDFGKTGYDGAAPPKGETHRYIFTVHALDIERIDVDEGASGAMVGFNVHFHSLASASITAMFS | – | 6.07 ± 0.44 | 13.4 ± 2 | 5.42 ± 0.21 | 11.4 ± 1.1 | 10.9 ± 2.7 | – | 5.59 ± 0.26 | > 8 | 5.79 ± 0.095 | 5.96 ± 0.2 | 6.04 ± 0.39 |
